In US20140179896A1 (published 2014):

Tests used:
[1] = target: T1, mouse vascular endothelial growth factor receptor-2 Fc chimera (Flk-1-Fc) (mouse, UniProt P35918 20-762); assay: radioactive equilibrium binding assay, 1 nM Flk-1-Fc, % of input bound
T1 construct: Bought from R&D Systems; also called mouse VEGFR-2; not shown: Fc part of the purchased chimera, not specified
Protocol: (§1) To prepare ³⁵S-labeled binding proteins for analysis, mRNA was prepared as described above for RNA-protein fusion production but the linker ligation step was omitted. The mRNA was expressed using rabbit reticulocyte lysate translation kit (Ambion) in the presence of ³⁵S-labeled Met at 30° C. for 1 hour. Expressed protein was purified on M2-agarose Flag beads (Sigma) as described above. This procedure produced the encoded protein without the nucleic acid tail. In a direct binding assay, VEGF-R2-Fc fusions in concentrations ranging from 0 to 200 nM were added to a constant concentration of the purified protein (0.2 or 0.5 nM) and incubated at 30° C. for 1 hour in buffer B. The receptor-binder complexes were captured using Protein A magnetic beads for another 10 minutes at room temperature using a Kingfisher™ The beads were washed with six reaction volumes of buffer B. The protein was eluted from the beads with 100 μL of 0.1 M KOH. […] of the reaction mixture and elution were dried onto a LumaPlate-96 (Packard) and the amount of ³⁵S on the plate was measured using a TopCount NXT instrument (Packard). The amount of fibronectin-based scaffold protein bound to the target was estimated as a percent of radioactivity eluted from Protein A magnetic beads compare to radioactivity in the reaction mixture. Nonspecific binding of fibronectin-based scaffold proteins to the beads was determined by measuring binding in the absence of KDR-Fc and represented less than 1-2% of the input. Specific binding was obtained through subtraction of nonspecific binding from total binding. Data was analyzed using the GraphPad Prizm software (GraphPad Software, Inc, San Diego, Calif.), fitted using a one site, non-linear binding equation.

[2] = target: T2, human vascular endothelial growth factor receptor-2 Fc chimera (KDR-Fc) (human, UniProt P35968 20-764); assay: radioactive equilibrium binding assay, 1 nM KDR-Fc, % of input bound
T2 construct: range 1-764; also called human VEGFR-2; not shown: human IgG1 Fc
Protocol: as §1
T2 sequence (P35968 20-764 limits assumed, change not shown, form in doubt): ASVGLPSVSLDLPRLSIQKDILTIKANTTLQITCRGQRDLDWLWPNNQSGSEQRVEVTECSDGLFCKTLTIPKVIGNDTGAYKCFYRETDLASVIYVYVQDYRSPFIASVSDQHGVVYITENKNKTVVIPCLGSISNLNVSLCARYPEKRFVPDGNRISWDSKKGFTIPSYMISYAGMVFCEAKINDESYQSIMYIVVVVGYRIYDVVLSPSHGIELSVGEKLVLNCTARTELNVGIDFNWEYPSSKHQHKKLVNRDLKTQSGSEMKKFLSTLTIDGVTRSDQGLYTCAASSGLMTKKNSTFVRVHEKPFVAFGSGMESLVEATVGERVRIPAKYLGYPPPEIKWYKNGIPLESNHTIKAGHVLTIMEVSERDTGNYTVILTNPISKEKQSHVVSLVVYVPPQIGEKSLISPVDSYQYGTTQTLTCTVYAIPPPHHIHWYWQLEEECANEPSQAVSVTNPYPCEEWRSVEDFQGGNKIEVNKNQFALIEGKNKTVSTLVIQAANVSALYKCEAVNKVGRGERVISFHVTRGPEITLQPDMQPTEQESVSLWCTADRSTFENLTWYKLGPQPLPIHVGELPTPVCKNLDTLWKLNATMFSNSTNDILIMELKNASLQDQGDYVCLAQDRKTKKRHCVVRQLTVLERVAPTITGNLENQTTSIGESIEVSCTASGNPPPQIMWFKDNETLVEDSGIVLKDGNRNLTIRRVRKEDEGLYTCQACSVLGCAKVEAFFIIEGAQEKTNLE

[3] = target: T3, human vascular endothelial growth factor receptor-2 Fc chimera (KDR-Fc) (human, UniProt P35968 20-764); assay: radioactive equilibrium binding, 1 nM KDR-Fc
T3 construct: range 1-764; also called human VEGFR-2; VEGF-R2-Fc; not shown: human IgG1 Fc
Procedure, shortened: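 Read-out: eluted ³⁵S as % of input radioactivity, minus bead-only binding without KDR-Fc (under 1-2% of input); one-site non-linear fit. Tracer binder 0.2 or 0.5 nM, receptor-Fc 0–200 nM, 1 h at 30° C in buffer B.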
T3 sequence (P35968 20-764 limits assumed, change not shown, form in doubt): as above

T1 sequence (P35918 20-762, change not shown): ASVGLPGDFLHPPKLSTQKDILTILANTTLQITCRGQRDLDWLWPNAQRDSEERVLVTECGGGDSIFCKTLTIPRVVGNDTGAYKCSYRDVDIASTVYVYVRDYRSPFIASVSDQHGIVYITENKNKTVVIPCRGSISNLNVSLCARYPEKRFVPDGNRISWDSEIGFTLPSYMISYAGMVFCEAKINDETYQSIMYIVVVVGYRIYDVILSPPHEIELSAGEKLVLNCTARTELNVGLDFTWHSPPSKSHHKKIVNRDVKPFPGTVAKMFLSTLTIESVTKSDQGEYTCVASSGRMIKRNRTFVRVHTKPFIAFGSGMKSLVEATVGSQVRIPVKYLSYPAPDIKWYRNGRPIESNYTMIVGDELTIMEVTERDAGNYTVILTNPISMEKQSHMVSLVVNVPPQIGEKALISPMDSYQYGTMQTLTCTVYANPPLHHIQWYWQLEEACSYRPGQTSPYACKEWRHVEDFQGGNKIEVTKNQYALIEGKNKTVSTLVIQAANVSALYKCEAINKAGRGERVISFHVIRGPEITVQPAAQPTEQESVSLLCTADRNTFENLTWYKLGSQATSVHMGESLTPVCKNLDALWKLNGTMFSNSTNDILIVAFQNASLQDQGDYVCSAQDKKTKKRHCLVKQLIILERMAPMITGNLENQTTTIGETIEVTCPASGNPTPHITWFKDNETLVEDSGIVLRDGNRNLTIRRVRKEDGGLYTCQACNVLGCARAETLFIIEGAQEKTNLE

Binder	Binding to 1 nM Flk-1, % [1] [%]	Binding to 1 nM KDR, % [2] [%]	Binding to 1 nM KDR, % [3] [%]
A3 (designed binder, 10Fn3 clone, Del 1-8) EVVAATPTSLLISWRHPHFPTRYYRITYGETGGNSPVQEFTVPLQPPTATISGLKPGVDYTITGYAVTDGWNGKMLSVPISINYRT	7	33	–
A4 (designed binder, 10Fn3 clone, Del 1-8) EVVAATPTSLLISWRHPHFPTRYYRITYGETGGNSPVQEFTVPLQPPTATISGLKPGVDYTITGYAVTDGYNDRLLFIPISINYRT	2	46	–
A7 (designed binder, 10Fn3 clone, Del 1-8) EVVAATPTSLLISWRHPHFPTRYYRITYGETGGNSPVQEFTVPLQPPTATISGLKPGVDYTITGYAVTDGPNNRELIVPISINYRT	2	18	–
A8 (designed binder, 10Fn3 clone, Del 1-8) EVVAATPTSLLISWRHPHFPTRYYRITYGETGGNSPVQEFTVPLQPPTATISGLKPGVDYTITGYAVTDGLNGKYLFVPISINYRT	4	38	–
A9 (designed binder, 10Fn3 clone, Del 1-8) EVVAATPTSLLISWRHPHFPTRYYRITYGETGGNSPVQEFTVPLQPPTATISGLKPGVDYTITGYAVTEGWNDRELFVPISINYRT	4	31	–
A10 (designed binder, 10Fn3 clone, Del 1-8) EVVAATPTSLLISWRHPHFPTRYYRITYGETGGNSPVQEFTVPLQPPTATISGLKPGVDYTITGYAVTFGWNGRELLTPISINYRT	4	34	–
A11 (designed binder, 10Fn3 clone, Del 1-8) EVVAATPTSLLISWRHPHFPTRYYRITYGETGGNSPVQEFTVPLQPPTATISGLKPGVDYTITGYAVTLEWNNRVLMTPISINYRT	6	26	–
A12 (designed binder, 10Fn3 clone, Del 1-8) EVVAATPTSLLISWRHPHFPTRYYRITYGETGGNSPVQEFTVPLQPPTATISGLKPGVDYTITGYAVTVEWNGRVLMTPISINYRT	10	40	–
B3 (designed binder, 10Fn3 clone, Del 1-8) EVVAATPTSLLISWRHPHFPTRYYRITYGETGGNSPVQEFTVPLQPPTATISGLKPGVDYTITGYAVTMERNGRELMTPISINYRT	27	33	–
B4 (designed binder, 10Fn3 clone, Del 1-8) EVVAATPTSLLISWRHPHFPTRYYRITYGETGGNSPVQEFTVPLQPPTATISGLKPGVDYTITGYAVTNERNGRELMTPISINYRT	12	19	–
B5 (designed binder, 10Fn3 clone, Del 1-8) EVVAATPTSLLISWRHPHFPTRYYRITYGETGGNSPVQEFTVPLQPPTATISGLKPGVDYTITGYAVTQERNGRELMTPISINYRT	24	27	–
B11 (designed binder, 10Fn3 clone, Del 1-8) EVVAATPTSLLISWRHPHFPTRYYRITYGETGGNSPVQEFTVPLQPPTATISGLKPGVDYTITGYAVTVERNGRELKTPISINYRT	–	29	–
F12 (designed binder, 10Fn3 clone, Del 1-8) EVVAATPTSLLISWRHPHFPTRYYRITYGETGGNSPVQEFTVPLQPPTATISGLKPGVDYTITGYAVTDGRNGHELMTPISINYRT	–	17	–
G1 (designed binder, 10Fn3 clone, Del 1-8) EVVAATPTSLLISWRHPHFPTRYYRITYGETGGNSPVQEFTVPLQPPTATISGLKPGVDYTITGYAVTEGRNGRELMVPISINYRT	–	22	–
4′B7 PR4 (designed binder, Del 1-8) EVVAATPTSLLISWRHPHFPTRYYRITYGETGGNSPVQEFTVPLQPPTATISGLKPGVDYTITGYAVTVAQNNHELLTPISINYRT	–	–	16
4′B8 PR4 (designed binder, Del 1-8) EVVAATPTSLLISWRHPHFPTRYYRITYGETGGNSPVQEFTVPLQPPTATISGLKPGVDYTITGYAVTVAQNDHKLFIPISINYRT	–	–	20

Binder	Binding to 1 nM Flk-1, % [1] [%]	Binding to 1 nM KDR, % [2] [%]	Binding to 1 nM KDR, % [3] [%]
4′B11 PR4 (designed binder, Del 1-8) EVVAATPTSLLISWRHPHFPTRYYRITYGETGGNSPVQEFTVPLQPPTATISGLKPGVDYTITGYAVTMAHNDHELLTPISINYRT	–	–	25
4′C5 PR4 (designed binder, Del 1-8) EVVAATPTSLLISWRHPHFPTRYYRITYGETGGNSPVQEFTVPLQPPTATISGLKPGVDYTITGYAVTLGLNDHELITPISINYRT	–	–	27
4′C9 PR4 (designed binder, Del 1-8) EVVAATPTSLLISWRHPHFPTRYYRITYGETGGNSPVQEFTVPLQPPTATISGLKPGVDYTITGYAVTLGPNDHELMTPISINYRT	–	–	29
4′D6 PR4 (designed binder, Del 1-8) EVVAATPTSLLISWRHPHFPTRYYRITYGETGGNSPVQEFTVPLQPPTATISGLKPGVDYTITGYAVTMAQNDHELMTPISINYRT	–	–	14
4′D8 PR4 (designed binder, Del 1-8) EVVAATPTSLLISWRHPHFPTRYYRITYGETGGNSPVQEFTVPLQPPTATISGLKPGVDYTITGYAVTLAQNGHELYTPISINYRT	–	–	26
4′E7 PR4 (designed binder, Del 1-8) EVVAATPTSLLISWRHPHFPTRYYRITYGETGGNSPVQEFTVPLQPPTATISGLKPGVDYTITGYAVTWAQNDHELLTPISINYRT	–	–	17
4′G4 PR4 (designed binder, Del 1-8) EVVAATPTSLLISWRHPHFPTRYYRITYGETGGNSPVQEFTVPLQPPTATISGLKPGVDYTITGYAVTVAQNDRELLTPISINYRT	–	–	19
4′G12 PR4 (designed binder, Del 1-8) EVVAATPTSLLISWRHPHFPTRYYRITYGETGGNSPVQEFTVPLQPPTATISGLKPGVDYTITGYAVTVAWNDHEIYTPISINYRT	–	–	21
4′H5 PR4 (designed binder, Del 1-8) EVVAATPTSLLISWRHPHFPTRYYRITYGETGGNSPVQEFTVPLQPPTATISGLKPGVDYTITGYAVTLAQNGHELFTPISINYRT	–	–	18
4′H7 PR4 (designed binder, Del 1-8) EVVAATPTSLLISWRHPHFPTRYYRITYGETGGNSPVQEFTVPLQPPTATISGLKPGVDYTITGYAVTLAHNDHELLTPISINYRT	–	–	29
4′H12 PR4 (designed binder, Del 1-8) EVVAATPTSLLISWRHPHFPTRYYRITYGETGGNSPVQEFTVPLQPPTATISGLKPGVDYTITGYAVTVAHNDHELLTPISINYRT	–	–	17
2′E4-PR4 (designed binder, WT N-terminus) VSDVPRDLEVVAATPTSLLISWRHPHFPTRYYRITYGETGGNSPVQEFTVPLQPPTATISGLKPGVDYTITGYAVTVHWNGHELMTPISINYRT	–	–	22
2′C6-PR4 (designed binder, WT N-terminus) VSDVPRDLEVVAATPTSLLISWRHPHFPTRYYRITYGETGGNSPVQEFTVPLQPPTATISGLKPGVDYTITGYAVTMGFMAHELMVPISINYRT	–	–	16
2′D6-PR4 (designed binder, WT N-terminus) VSDVPRDLEVVAATPTSLLISWRHPHFPTRYYRITYGETGGNSPVQEFTVPLQPPTATISGLKPGVDYTITGYAVTVTHNGHPLMTPISINYRT	–	–	22
2′H4-PR4 (designed binder, WT N-terminus) VSDVPRDLEVVAATPTSLLISWRHPHFPTRYYRITYGETGGNSPVQEFTVPLQPPTATISGLKPGVDYTITGYAVTVGPNERMLMTPISINYRT	–	–	17
